Source: patent US20060257938A1, “Method of screening for drugs that block ligand binding to a lipid binding protein” (priority 2005, published 2006)
Values joined by “and” are separate entries in the source; they are usually repeats but may differ in a detail not shown here. Equal values may be shown once.

B1: 31T2, 72A (protein, listed as Rattus norvegicus)
chain: AFDGTWKVDRNENYEKFMEKMGINVVKRKLTAHDNLKLTITQEGNKFTVKESSNFRNIDVVFELGVDFAYSAADGTELTGTWTMEGNKLVGKFKRVDNGKELIAVREISGNELIQTYTYEGVEAKRIFKKE
modifications: PEPTIDE (1)...(131) wild-type rat intestinal fatty acid binding protein
B2: 34K, 72A (protein, listed as Rattus norvegicus)
chain: AFDGTWKVDRNENYEKFMEKMGINVVKRKLGAHKNLKLTITQEGNKFTVKESSNFRNIDVVFELGVDFAYSAADGTELTGTWTMEGNKLVGKFKRVDNGKELIAVREISGNELIQTYTYEGVEAKRIFKKE
modifications: PEPTIDE (1)...(131) wild-type rat intestinal fatty acid binding protein
B3: 34G, 72A (protein, listed as Rattus norvegicus)
chain: AFDGTWKVDRNENYEKFMEKMGINVVKRKLGAHGNLKLTITQEGNKFTVKESSNFRNIDVVFELGVDFAYSAADGTELTGTWTMEGNKLVGKFKRVDNGKELIAVREISGNELIQTYTYEGVEAKRIFKKE
modifications: PEPTIDE (1)...(131) wild-type rat intestinal fatty acid binding protein
B4: 34R, 72A (protein, listed as Rattus norvegicus)
chain: AFDGTWKVDRNENYEKFMEKMGINVVKRKLGAHRNLKLTITQEGNKFTVKESSNFRNIDVVFELGVDFAYSAADGTELTGTWTMEGNKLVGKFKRVDNGKELIAVREISGNELIQTYTYEGVEAKRIFKKE
modifications: PEPTIDE (1)...(131) wild-type rat intestinal fatty acid binding protein
B5: 34E, 72A (protein, listed as Rattus norvegicus)
chain: AFDGTWKVDRNENYEKFMEKMGINVVKRKLGAHENLKLTITQEGNKFTVKESSNFRNIDVVFELGVDFAYSAADGTELTGTWTMEGNKLVGKFKRVDNGKELIAVREISGNELIQTYTYEGVEAKRIFKKE
modifications: PEPTIDE (1)...(131) wild-type rat intestinal fatty acid binding protein
B6: 31V2, 72A (protein, listed as Rattus norvegicus)
chain: AFDGTWKVDRNENYEKFMEKMGINVVKRKLVAHDNLKLTITQEGNKFTVKESSNFRNIDVVFELGVDFAYSAADGTELTGTWTMEGNKLVGKFKRVDNGKELIAVREISGNELIQTYTYEGVEAKRIFKKE
modifications: PEPTIDE (1)...(131) wild-type rat intestinal fatty acid binding protein
B7: 31W2, 72A (protein, listed as Rattus norvegicus)
chain: AFDGTWKVDRNENYEKFMEKMGINVVKRKLWAHDNLKLTITQEGNKFTVKESSNFRNIDVVFELGVDFAYSAADGTELTGTWTMEGNKLVGKFKRVDNGKELIAVREISGNELIQTYTYEGVEAKRIFKKE
modifications: PEPTIDE (1)...(131) wild-type rat intestinal fatty acid binding protein
B8: 31Y2, 72A (protein, listed as Rattus norvegicus)
chain: AFDGTWKVDRNENYEKFMEKMGINVVKRKLYAHDNLKLTITQEGNKFTVKESSNFRNIDVVFELGVDFAYSAADGTELTGTWTMEGNKLVGKFKRVDNGKELIAVREISGNELIQTYTYEGVEAKRIFKKE
modifications: PEPTIDE (1)...(131) wild-type rat intestinal fatty acid binding protein
B9: 34H, 72A (protein, listed as Rattus norvegicus)
chain: AFDGTWKVDRNENYEKFMEKMGINVVKRKLGAHHNLKLTITQEGNKFTVKESSNFRNIDVVFELGVDFAYSAADGTELTGTWTMEGNKLVGKFKRVDNGKELIAVREISGNELIQTYTYEGVEAKRIFKKE
modifications: PEPTIDE (1)...(131) wild-type rat intestinal fatty acid binding protein
B10: 34A, 72A (protein, listed as Rattus norvegicus)
chain: AFDGTWKVDRNENYEKFMEKMGINVVKRKLGAHANLKLTITQEGNKFTVKESSNFRNIDVVFELGVDFAYSAADGTELTGTWTMEGNKLVGKFKRVDNGKELIAVREISGNELIQTYTYEGVEAKRIFKKE
modifications: PEPTIDE (1)...(131) wild-type rat intestinal fatty acid binding protein
B11: 34T, 72A (protein, listed as Rattus norvegicus)
chain: AFDGTWKVDRNENYEKFMEKMGINVVKRKLGAHTNLKLTITQEGNKFTVKESSNFRNIDVVFELGVDFAYSAADGTELTGTWTMEGNKLVGKFKRVDNGKELIAVREISGNELIQTYTYEGVEAKRIFKKE
modifications: PEPTIDE (1)...(131) wild-type rat intestinal fatty acid binding protein
B12: 34P, 72A (protein, listed as Rattus norvegicus)
chain: AFDGTWKVDRNENYEKFMEKMGINVVKRKLGAHPNLKLTITQEGNKFTVKESSNFRNIDVVFELGVDFAYSAADGTELTGTWTMEGNKLVGKFKRVDNGKELIAVREISGNELIQTYTYEGVEAKRIFKKE
modifications: PEPTIDE (1)...(131) wild-type rat intestinal fatty acid binding protein
B13: 34S, 72A (protein, listed as Rattus norvegicus)
chain: AFDGTWKVDRNENYEKFMEKMGINVVKRKLGAHSNLKLTITQEGNKFTVKESSNFRNIDVVFELGVDFAYSAADGTELTGTWTMEGNKLVGKFKRVDNGKELIAVREISGNELIQTYTYEGVEAKRIFKKE
modifications: PEPTIDE (1)...(131) wild-type rat intestinal fatty acid binding protein
B14: 34C, 72A (protein, listed as Rattus norvegicus)
chain: AFDGTWKVDRNENYEKFMEKMGINVVKRKLGAHCNLKLTITQEGNKFTVKESSNFRNIDVVFELGVDFAYSAADGTELTGTWTMEGNKLVGKFKRVDNGKELIAVREISGNELIQTYTYEGVEAKRIFKKE
modifications: PEPTIDE (1)...(131) wild-type rat intestinal fatty acid binding protein
B15: 31Y1, 72A (protein, listed as Rattus norvegicus)
chain: AFDGTWKVDRNENYEKFMEKMGINVVKRKLYAHDNLKLTITQEGNKFTVKESSNFRNIDVVFELGVDFAYSAADGTELTGTWTMEGNKLVGKFKRVDNGKELIAVREISGNELIQTYTYEGVEAKRIFKKE
modifications: PEPTIDE (1)...(131) wild-type rat intestinal fatty acid binding protein
B16: 34N, 72A (protein, listed as Rattus norvegicus)
chain: AFDGTWKVDRNENYEKFMEKMGINVVKRKLGAHNNLKLTITQEGNKFTVKESSNFRNIDVVFELGVDFAYSAADGTELTGTWTMEGNKLVGKFKRVDNGKELIAVREISGNELIQTYTYEGVEAKRIFKKE
modifications: PEPTIDE (1)...(131) wild-type rat intestinal fatty acid binding protein
B17: 34Q, 72A (protein, listed as Rattus norvegicus)
chain: AFDGTWKVDRNENYEKFMEKMGINVVKRKLGAHQNLKLTITQEGNKFTVKESSNFRNIDVVFELGVDFAYSAADGTELTGTWTMEGNKLVGKFKRVDNGKELIAVREISGNELIQTYTYEGVEAKRIFKKE
modifications: PEPTIDE (1)...(131) wild-type rat intestinal fatty acid binding protein

Key:
Assay type in all cases: binding
[1] = Probe fluorescence ratio response to linolenic acid relative to ADIFAB2; settings: response relative to ADIFAB2
How it was run: (§1)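 Each fatty acid's response was expressed relative to ADIFAB2, the rI-FABP-L72A probe, as ΔR/ΔRreference. ΔR is the change in the background-corrected two-wavelength intensity ratio R=Fλ1/Fλ2 from its analyte-free baseline R0. Emission was read near about 420-480 nm for unbound and about 495-580 nm for FFA-bound probe.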

[2] = Probe fluorescence ratio response to palmitic acid relative to ADIFAB2; settings: response relative to ADIFAB2
How it was run: as §1

[3] = Probe fluorescence ratio response to arachidonic acid relative to ADIFAB2; settings: arachidonic acid; response relative to ADIFAB2
How it was run: as §1

[4] = Probe fluorescence ratio response to oleic acid relative to ADIFAB2; settings: response relative to ADIFAB2
How it was run: as §1

[5] = Probe fluorescence ratio response to linoleic acid relative to ADIFAB2; settings: response relative to ADIFAB2
How it was run: as §1

Row | Molecule | DR/DR LNA [1] | DR/DR PA [2] | DR/DR AA [3] | DR/DR OA [4] | DR/DR LA [5]
1 | B1 | 0.91 | 0.41 | 0.65 | 0.53 | 0.75
2 | B2 | 1.33 | 0.26 | 0.43 | 0.41 | 0.61
3 | B3 | 0.29 | 0.18 | 0.54 | 0.13 | 0.33
4 | B4 | 0.47 | 0.30 | 0.41 | 0.44 | 0.61
5 | B5 | 0.57 and 0.571 | 0.48 and 0.482 | 0.62 and 0.618 | 0.49 and 0.486 | 0.60 and 0.604
6 | B6 | 0.78 | 0.21 | 0.40 | 0.08 | 0.38
7 | B7 | 1.03 | 0.62 | 0.99 | 0.87 | 1.15
8 | B8 | 0.80 | 0.17 | 0.37 | 0.01 | 0.36
9 | B9 | 0.72 | 0.38 | 0.65 | 0.52 | 0.74
10 | B10 | 0.57 | 0.33 | 0.58 | 0.49 | 0.57
11 | B11 | 0.67 | 0.40 | 0.61 | 0.53 | 0.64
12 | B12 | 0.76 | 0.35 | 0.46 | 0.46 | 0.66
13 | B13 | 0.59 | 0.43 | 0.58 | 0.58 | 0.65
14 | B14 | 0.33 | 0.18 | 0.34 | 0.30 | 0.59
15 | B15 | 1.61 | 1.10 | 1.78 | 1.55 | 1.75
16 | B16 | 1.18 | 1.11 | 1.19 | 1.16 | 1.16
17 | B17 | 0.48 | 0.36 | 0.52 | 0.44 | 0.56
